These results are taken from patent publication US20240287165A1 (GENERAL HOSPITAL, published 2024).

Residue numbers refer to the chain shown, from its start. Like-named read-outs stand apart in the source and are kept apart here.

The target of assay [1] is wild type ApoE peptide KLH-…-CONH2 (human). Put plainly: ELISA, negative control.
Assay [2] addresses full-length wild type human ApoE3 recombinant protein (His-tagged) (human) (UniProt P02649). The assay can be described thus: ELISA, negative control. On the technique in general: ELISA stands for enzyme-linked immunosorbent assay.
Assay [3] has as its target full-length ApoE3ch (ApoE3 Christchurch R136S) mutant recombinant protein (His-tagged) (human) (UniProt P02649). The assay can be described thus: ELISA, negative control.
Assay [4] concerns the target ApoEch peptide KLH-…-CONH2 (human). The assay can be described thus: ELISA, negative control.
Assay [5] deals with T1, bovine serum albumin (BSA) (bovine, UniProt P02769 25-607). Put plainly: ELISA, BSA as control coat, antibody diluted 1:1000 to 1:32000, absorbance 450 nm; x axis counts the dilution factor.
T1 sequence (P02769 25-607 limits assumed): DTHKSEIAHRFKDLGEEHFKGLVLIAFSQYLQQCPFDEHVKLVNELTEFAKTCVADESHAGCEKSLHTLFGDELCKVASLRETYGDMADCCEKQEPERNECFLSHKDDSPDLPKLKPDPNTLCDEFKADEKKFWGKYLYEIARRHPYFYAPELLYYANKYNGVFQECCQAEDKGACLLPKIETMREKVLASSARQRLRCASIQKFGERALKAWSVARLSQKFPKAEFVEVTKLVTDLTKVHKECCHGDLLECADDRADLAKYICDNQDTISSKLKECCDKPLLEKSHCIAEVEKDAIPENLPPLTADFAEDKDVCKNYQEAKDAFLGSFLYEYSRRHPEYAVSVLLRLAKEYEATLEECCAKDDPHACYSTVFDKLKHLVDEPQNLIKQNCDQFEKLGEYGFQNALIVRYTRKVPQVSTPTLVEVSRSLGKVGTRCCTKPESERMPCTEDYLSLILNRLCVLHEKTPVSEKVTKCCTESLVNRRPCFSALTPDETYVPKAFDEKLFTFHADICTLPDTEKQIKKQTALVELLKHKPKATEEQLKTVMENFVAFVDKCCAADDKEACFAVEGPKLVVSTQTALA
Assay [6] concerns the target T2, full-length ApoE3ch (ApoE3 Christchurch R136S) mutant recombinant protein (His-tagged) (human, UniProt P02649 19-317).
T2 construct: also called ApoE3ch full length protein; APOE3ch Mutant; not shown: histidine tag
Put plainly: ELISA, His-tagged ApoE protein on Ni-NTA plate, antibody diluted 1:1000 to 1:32000, anti-mouse HRP, absorbance 450 nm; x axis (printed 'Antibody Concentation') counts the dilution factor. As to the method: (§1) ELISA: Antibodies designed against the heparin-binding domain of ApoE were tested for their affinity to ApoE3 and ApoEch mutant recombinant proteins using ELISA. The Ni-NTA HisSorb Plates (Qiagen) were washed 3 times with wash buffer 1 (DY008). The ApoE recombinant proteins were suspended in buffer (DY008) to give a final concentration of 0.5 μg/ml. The plates were incubated with 200 μl of ApoE recombinant proteins for 2 hours, and washed 5 times with 1x wash buffer (DY008). The plates were then incubated with antibodies at a serial dilution of from 1:1,000 to 1:32,000 for overnight at 4° C. The plate was then washed 5 times in 1X wash buffer (DY008), and incubated with anti-mouse HRP (Abcam; ab97046, 1:10,000) for 45 minutes, followed by 5 washes in 1x wash buffer to ensure complete removal of unbound secondary antibody. The sulfuric acid from the ELISA reagent kit (DY008) was warmed to 37° C. 100 μl of tetramethylbenzidine (Millipore) was added to initiate the detection phase of the reaction. After a 5-min incubation, sulfuric acid was added to terminate the reaction. The plate was then read using Synery 2 microplate reader (BioTek Instrument. Inc) and the Gen5 version1.11 software).
(§2) To generate monoclonal antibodies against the heparin-binding domain of ApoE, mice were immunized using the wild type ApoE peptide: KLH-[…]-CONH₂ (SEQ ID NO:54), and the ApoEch peptide: KLH-[…]-CONH₂ (SEQ ID NO:55). A cysteine residue was added at the N-terminus to facilitate conjugation of the peptides. Cell fusions were obtained from positive clones and cell supernatants tested for activity against the wild type and mutant peptides and proteins. Seven antibodies generated were analyzed by ELISA as examples, as described in the materials and methods section.

For assay [7], the target named is T3, C-terminal domain ApoE3ch mutant recombinant protein (amino acids 125 to 299) (human, UniProt P02649 143-317).
T3 construct: also called C-terminal ApoE3ch mutant protein; APOE3 mutant c terminal protein; not shown: histidine tag
T3 chain: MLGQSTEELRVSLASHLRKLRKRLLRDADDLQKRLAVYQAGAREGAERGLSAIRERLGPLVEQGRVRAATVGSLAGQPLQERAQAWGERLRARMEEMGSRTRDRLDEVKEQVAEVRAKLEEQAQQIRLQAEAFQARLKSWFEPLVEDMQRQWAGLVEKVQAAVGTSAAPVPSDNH
Described as above. As to the method:
as §1, §2

The target of assay [8] is T1, bovine serum albumin (BSA). Put plainly: ELISA, BSA as control coat, antibody diluted 1:1000 to 1:32000, absorbance 450 nm; x axis counts the dilution factor. As for the experimental part: as §1, with “100 μl of tetramethylbenzidine (Millipore) was added to initiate the detection phase of the reaction. After a 5-min incubation, sulfuric acid was added to terminate the reaction.” left out
To generate monoclonal antibodies against the heparin-binding domain of ApoE, mice were immunized using the wild type ApoE peptide: KLH-[…]-CONH₂ (SEQ ID NO:54), and the ApoEch peptide: KLH-[…]-CONH₂ (SEQ ID NO:55). […] Seven antibodies generated were analyzed by ELISA as examples, as described in the materials and methods section.
This is another data set of the same source.

Assay [9] addresses T4, C-terminal wild type ApoE3 recombinant protein (human, UniProt P02649 143-317, limits assumed).
T4 construct: also called C-terminal form of wild type ApoE3; c-terminus of the APOE3WT protein; not shown: histidine tag
The assay can be described thus: ELISA, His-tagged ApoE protein on Ni-NTA plate, antibody diluted 1:1000 to 1:32000, absorbance 450 nm against dilution factor. As for the experimental part:
Antibodies designed against the heparin binding domain of APOE were tested for affinity to APOE3 and APOEch mutant recombinant protein using an ELISA. The Ni-NTA HisSorb Plates (Qiagen) plates were washed 3 times with wash buffer 1 (DY008), the APOE recombinant proteins were suspended in buffer (DY008) to give a final concentration of 0.5 μg/ml. The plates were incubated with 200 μl for 2 hours. The plate was then washed 5 times with 1x wash buffer (DY008), the plates were then incubated with antibodies in a serial dilution series from 1:1000 to 1:32000 and incubated overnight at 4° C. The plate is then washed 5 times in 1X wash buffer (DY008). The plates were then incubated with Anti-mouse HRP (Abcam; ab97046) (1:10000) for 45 minutes. The plate was then washed 5 times in 1x wash buffer to ensure complete removal of unbound secondary antibody. The Sulfuric acid from the ELISA reagent kit (DY008) was warmed to 37° C. prior to addition of 100 μl of tetramethylbenzidine (Millipore) initiating the detection phase of the reaction. […] The plate was then read using Synery 2 microplate reader (BioTek Instrument. Inc) and the Gen5 version1.11 software).
The 19G10-2 antibody was further evaluated using Heparin-Affinity chromatography, Western Blotting, Quantitative ELISA for chromatography fractions, and ELISA for binding analyses. […]

Assay [10] concerns the target T5, ApoEch peptide KLH-CTEELRVSLASHLRK-CONH2 (human, not fully specified; C-terminal amide (CONH2); printed with KLH on the added N-terminal cysteine).
T5 construct: also called Mut peptide; mutant ApoE peptide
T5 peptide: CTEELRVSLASHLRK
The assay can be described thus: ELISA of the monoclonal antibody purified from cloned hybridoma, O.D. 450 nm against antibody concentration (ng/mL, log axis).

The target of assay [11] is T5, ApoEch peptide KLH-CTEELRVSLASHLRK-CONH2. The assay is described as above.
Assay [12] deals with T2, full-length ApoE3ch (ApoE3 Christchurch …). Put plainly: ELISA subclones analysis, 7C11-1 serum on mutant protein, O.D. 450 nm against dilution factor.
The target of assay [13] is T5, ApoEch peptide KLH-CTEELRVSLASHLRK-CONH2. The assay can be described thus: ELISA, parental hybridoma clone.
Assay [14] addresses T2, full-length ApoE3ch (ApoE3 Christchurch …). Put plainly: ELISA, parental hybridoma clone.
Assay [15] has as its target T6, full-length wild type human ApoE3 recombinant protein (His-tagged) (human, UniProt P02649 19-317).
T6 construct: Recombinant protein from Innovagen; also called ApoE3 WT full-length protein; APOE3 WT; not shown: histidine tag
The assay can be described thus: ELISA, parental hybridoma clone.

Assay [16] concerns the target T7, wild type ApoE peptide KLH-CTEELRVRLASHLRK-CONH2 (human, not fully specified; C-terminal amide (CONH2); printed with KLH on the added N-terminal cysteine).
T7 construct: also called WT peptide; ApoE3 WT peptide
T7 peptide: CTEELRVRLASHLRK
The assay can be described thus: ELISA, parental hybridoma clone.

As to Neg. ctrl (Table 6), the absorbance (ELISA) in [1] amounted to 0.068 absorbance; in assay [2], 0.051 absorbance; in [3], 0.048 absorbance; in assay [4], 0.056 absorbance.

B1: mouse antibody 1343ab (antibody, mouse IgG1, kappa, V domains shown)
VH: EVQLQQSGAELVRPGALVKLSCKASGFNIKDYHLHWVKQRPEQGLEWIGWIDPENGNVIYDPKFQGKATMTVVTSSNTAYLQLRSLTSEDTAVYFCTRGTARASFDYWGQGTSLTVSS
VL: DIVLTQSPASLAVSLGQRATISCKASQSVDYDGENYMNWYQQKPGQSPKLLIYVASNLESGIPARFSGSGSGTDFTLNIHPVEEEDAATYYCQQSNLDPWTFGGGTKLEIKR
modifications: N-linked glycosylation detected on heavy chain constant region N at 292; loss of C-terminal lysine observed
notes: also called 23B2
For B1, the binding result in assay [5] is on record as “no binding (tested: 1:1000 dilution)”.

B2: antibody 19G10-2 (antibody, V domains shown)
VH: EVQLQQSGAELVRPGALVKLSCKASGFNIKDYHMHWVKERPEQGLEWIGWIDPENGNTMYDPKFQGKASITADTSSNTAYLQLSSLTSEDTAVYYCVRGTARASFDYWGQGTTLTVSS
VL: DIVLTQSPASLAVSLGQRATISCKASQSVDYDGDSYMNWYQQKSGQPPKLLIYAASNLESGIPARFSGSGSGTDFTLNIHPVEEEDAATYYCQQSNVDPWTFGGGTKLEIK
notes: Tested as serum, as hybridoma supernatant and as purified monoclonal; also called 19G10-2 antibody serum; monoclonal antibody hybridoma supernatant 19G10-2
For B2, the binding result was “binds” in [6]; “binds” in assay [7]; “no binding (tested: 1:1000 dilution)” in [8]; “no binding (tested: 1:1000 dilution)” in assay [9]; “binds” in assay [10].

B3: antibody 25F1-2 (antibody, V domains shown)
VH: B2 VH with L20W, M34I, E39Q, E46D, N55I, G56D, N57K, M59L, S69R, V97A
VL: B2 VL with S35T, S44P, A54T, E85V, V97E
notes: also called 25F1-2 antibody serum; monoclonal antibody hybridoma supernatant 25F1-2
For B3, the binding result in assay [6] was “binds”; in [7] it was “binds”; in assay [11], “binds”; in assay [8], “no binding (tested: 1:1000 dilution)”.

B4: antibody 7C11-1 (antibody, V domains shown)
VH: EVKLVESGGGLVQPGGSLKLSCAASGFTFSRYTMSWVRQTPEKRLEWVAKIRNVGGITYYPDTVKGRFTISRDNAKNTLYLQMSSLKSEDTAMYYCARHYYGSEDYFDYWGQGTTLTVSS
VL: B2 VL with I2N, S44P, L50V, L51F, D74N, V97E
notes: The limits without signal peptide (20-139, 21-131) come from CLM-00005; also called 7C11-1 serum
Take B4: the binding result in [12] is reported as “no binding (tested: 1:10 dilution)”. Also, the “absorbance (ELISA)” value in assay [13] was 0.058 absorbance; in assay [14] it was 0.055 absorbance; in assay [15], 0.689 absorbance; in assay [16], 1.28 absorbance.
